± gives the standard deviation of the averaged measurements.
What was measured:
Saccharomyces cerevisiae [1] = assay: protein stability index of tFT-peptide fusion (C-terminal peptide) (PSI (0-1 scale)); higher = more stable (slower turnover)
Protocol: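 MPS profiling in S. cerevisiae of the tFT-X12 degron library: putative degron peptides plus stable controls, 12 aa, fused to the C-terminus of a sfGFP-mCherry timer. Cells are FACS-sorted into 8 mCherry/sfGFP bins and deep-sequenced. PSI runs from 0 (unstable) to 1 (stable). Backgrounds are wild type, das1Δ and doa10Δ at 30 °C, and wild type, das1Δ, cdc34-1 and cdc53-1 at 37 °C; 2-3 technical replicates each.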

Saccharomyces cerevisiae [2] = assay: as above; conditions: genetic background: wild type; temperature: 30 C
[3] = genetic background: cdc34-1, temperature: 37 C
[4] = genetic background: cdc53-1, temperature: 37 C
[5] = genetic background: das1 deletion, temperature: 30 C
[6] = genetic background: das1 deletion, temperature: 37 C
[7] = genetic background: doa10 deletion, temperature: 30 C
[8] = genetic background: wild type, temperature: 30 C
[9] = genetic background: wild type, temperature: 37 C
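Further: PSI is a weighted mean of sequencing reads over stability bins, variants kept only with over 10 reads, mCherry proximal and sfGFP distal, peptide attached via GGGS linker.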

| Sequence | protein stability index (Saccharomyces cerevisiae [1]; [3]) | protein stability index (Saccharomyces cerevisiae [1]; [4]) | protein stability index (Saccharomyces cerevisiae [1]; [5]) | protein stability index (Saccharomyces cerevisiae [1]; [6]) | protein stability index (Saccharomyces cerevisiae [1]; [7]) | protein stability index (Saccharomyces cerevisiae [1]; [8]) | protein stability index (Saccharomyces cerevisiae [1]; [9]) | protein stability index (Saccharomyces cerevisiae [2]) |
| --- | --- | --- | --- | --- | --- | --- | --- | --- |
| VVSLGGWCLYIY | 0.423 ± 0.061 | 0.4605 ± 0.0016 | 0.416 ± 0.032 | 0.461 ± 0.012 | 0.385 ± 0.023 | 0.333 ± 0.019 | 0.416 ± 0.0093 | 0.412 ± 0.025 |
| GGLFRWCVWRIV | 0.413 ± 0.02 | 0.5292 ± 0.0032 | 0.545 ± 0.025 | 0.6377 ± 0.0015 | 0.102 ± 0.016 | 0.102 ± 0.0098 | 0.172 ± 0.025 | 0.145 ± 0.0086 |
| VWFLLFVVWCGS | 0.212 ± 0.01 | 0.282 ± 0.024 | 0.217 ± 0.022 | 0.384 ± 0.0055 | 0.186 ± 0.021 | 0.204 ± 0.034 | 0.316 ± 0.0071 | 0.309 ± 0.031 |
| CLCFFMSILWWV | 0.4741 ± 0.0038 | 0.498 ± 0.017 | 0.434 ± 0.035 | 0.5222 ± 0.0016 | 0.422 ± 0.015 | 0.374 ± 0.019 | 0.478 ± 0.0048 | 0.4269 ± 0.0011 |
| FLFSVVFFFFSL | 0.368 ± 0.028 | 0.4558 ± 0.0032 | 0.353 ± 0.021 | 0.5154 ± 0.003 | 0.322 ± 0.011 | 0.35 ± 0.025 | 0.4586 ± 0.0045 | 0.421 ± 0.066 |
| RLILAIVVSGGL | 0.4098 ± 0.0018 | 0.425 ± 0.033 | 0.295 ± 0.034 | 0.495 ± 0.0071 | 0.252 ± 0.015 | 0.305 ± 0.022 | 0.457 ± 0.03 | 0.389 ± 0.0071 |
| AVRLPFPLLVHL | 0.205 ± 0.012 | 0.195 ± 0.0033 | 0.283 ± 0.031 | 0.386 ± 0.0046 | 0.427 ± 0.016 | 0.276 ± 0.053 | 0.337 ± 0.029 | 0.473 ± 0.028 |
| SSCLPAPPPLPL | 0.6491 ± 0.003 | 0.747 ± 0.025 | 0.682 ± 0.042 | 0.698 ± 0.0084 | 0.677 ± 0.0075 | 0.672 ± 0.021 | 0.701 ± 0.017 | 0.4965 ± 0.0048 |
| LSGIILGWSVSG | 0.755 ± 0.047 | 0.76 ± 0.0077 | 0.6302 ± 0.0058 | 0.735 ± 0.047 | 0.6308 ± 0.005 | 0.645 ± 0.0062 | 0.7292 ± 0.003 | 0.676 ± 0.034 |
| YVIGLLFVVSGV | 0.265 ± 0.013 | 0.366 ± 0.025 | 0.258 ± 0.044 | 0.465 ± 0.029 | 0.229 ± 0.0076 | 0.251 ± 0.033 | 0.385 ± 0.03 | 0.39 ± 0.0085 |
| GGSWVRCLRTMG | 0.628 ± 0.019 | 0.71 ± 0.024 | 0.614 ± 0.016 | 0.7097 ± 0.0014 | 0.17 ± 0.0073 | 0.158 ± 0.028 | 0.399 ± 0.032 | 0.312 ± 0.029 |
| GIFVWWFWGCCG | 0.503 ± 0.016 | 0.585 ± 0.051 | 0.38 ± 0.023 | 0.567 ± 0.03 | 0.293 ± 0.02 | 0.321 ± 0.017 | 0.5283 ± 0.0019 | 0.399 ± 0.01 |
| GWRRRIWLCRLQ | 0.575 ± 0.018 | 0.741 ± 0.038 | 0.7 ± 0.013 | 0.7939 ± 0.004 | 0.41 ± 0.02 | 0.412 ± 0.036 | 0.662 ± 0.054 | 0.505 ± 0.041 |
| VFIVVEFRLSLY | 0.122 ± 0.019 | 0.243 ± 0.074 | 0.174 ± 0.038 | 0.3023 ± 0.0029 | 0.1496 ± 0.0014 | 0.17 ± 0.0089 | 0.263 ± 0.0037 | 0.231 ± 0.073 |
| VYCCVRSLRVAI | 0.553 ± 0.0082 | 0.677 ± 0.047 | 0.471 ± 0.035 | 0.6347 ± 0.0019 | 0.395 ± 0.022 | 0.428 ± 0.023 | 0.5746 ± 0.0014 | 0.496 ± 0.0097 |
| GVMSICRWMISV | 0.415 ± 0.0094 | 0.427 ± 0.012 | 0.325 ± 0.042 | 0.4914 ± 0.0034 | 0.263 ± 0.013 | 0.275 ± 0.035 | 0.439 ± 0.017 | 0.374 ± 0.014 |
| YQKIARVSLAVS | 0.466 ± 0.015 | 0.512 ± 0.02 | 0.347 ± 0.038 | 0.526 ± 0.014 | 0.27 ± 0.021 | 0.328 ± 0.025 | 0.4779 ± 0.0035 | 0.424 ± 0.015 |
| VTVWVFVFLRGL | 0.319 ± 0.0069 | 0.393 ± 0.015 | 0.315 ± 0.029 | 0.454 ± 0.029 | 0.294 ± 0.0043 | 0.302 ± 0.019 | 0.453 ± 0.0035 | 0.374 ± 0.052 |
| GLLLVWAALGFV | 0.343 ± 0.033 | 0.4444 ± 0.0018 | 0.28 ± 0.019 | 0.458 ± 0.006 | 0.221 ± 0.007 | 0.251 ± 0.043 | 0.439 ± 0.0095 | 0.3431 ± 0.00066 |
| NDSSWEVSLMVG | 0.693 ± 0.019 | 0.763 ± 0.021 | 0.616 ± 0.024 | 0.748 ± 0.0098 | 0.614 ± 0.041 | 0.62 ± 0.018 | 0.736 ± 0.028 | 0.363 ± 0.076 |

| Sequence | protein stability index (Saccharomyces cerevisiae [1]; [3]) | protein stability index (Saccharomyces cerevisiae [1]; [4]) | protein stability index (Saccharomyces cerevisiae [1]; [5]) | protein stability index (Saccharomyces cerevisiae [1]; [6]) | protein stability index (Saccharomyces cerevisiae [1]; [7]) | protein stability index (Saccharomyces cerevisiae [1]; [8]) | protein stability index (Saccharomyces cerevisiae [1]; [9]) | protein stability index (Saccharomyces cerevisiae [2]) |
| --- | --- | --- | --- | --- | --- | --- | --- | --- |
| RYQDLSDWRRIS | 0.412 ± 0.02 | 0.6574 ± 0.0031 | 0.629 ± 0.0036 | 0.753 ± 0.028 | 0.073 ± 0.0096 | 0.0791 ± 0.017 | 0.0794 ± 0.017 | 0.159 ± 0.0075 |
| FSVSYFRLVRLC | 0.39 ± 0.017 | 0.572 ± 0.0077 | 0.458 ± 0.032 | 0.602 ± 0.0083 | 0.0722 ± 0.003 | 0.0819 ± 0.038 | 0.08731 ± 0.00027 | 0.0191 ± 0.027 |
| VVQCRFPTPCVV | 0.486 ± 0.035 | 0.485 ± 0.033 | 0.372 ± 0.03 | 0.5335 ± 0.0022 | 0.349 ± 0.0096 | 0.376 ± 0.027 | 0.496 ± 0.022 | 0.476 ± 0.013 |
| RSYAYIIVATVA | 0.153 ± 0.021 | 0.197 ± 0.0038 | 0.182 ± 0.026 | 0.284 ± 0.014 | 0.14 ± 0.0081 | 0.178 ± 0.025 | 0.214 ± 0.024 | 0.274 ± 0.023 |
| VMFCRFPLRFGC | 0.662 ± 0.031 | 0.726 ± 0.03 | 0.631 ± 0.0071 | 0.7445 ± 0.0057 | 0.3191 ± 0.0022 | 0.348 ± 0.023 | 0.561 ± 0.021 | 0.475 ± 0.026 |
| DRRYIISLIYIL | 0.32 ± 0.022 | 0.5045 ± 0.0033 | 0.369 ± 0.023 | 0.576 ± 0.035 | 0.0892 ± 0.014 | 0.0874 ± 0.015 | 0.105 ± 0.0088 | 0.113 ± 0.059 |
| LFSTRRWISVCA | 0.0208 ± 0.0016 | 0.0362 ± 0.013 | 0.134 ± 0.035 | 0.127 ± 0.011 | 0.0486 ± 0.012 | 0.054 ± 0.0027 | 0.0577 ± 0.015 | 0.0789 ± 0.016 |
| GLFLLWWLGWLV | 0.63 ± 0.011 | 0.645 ± 0.043 | 0.468 ± 0.022 | 0.651 ± 0.023 | 0.333 ± 0.02 | 0.376 ± 0.02 | 0.5187 ± 0.0047 | 0.422 ± 0.036 |
| LVVIYPLLSSPV | 0.564 ± 0.0066 | 0.567 ± 0.019 | 0.43 ± 0.027 | 0.578 ± 0.0074 | 0.402 ± 0.014 | 0.43 ± 0.022 | 0.562 ± 0.0072 | 0.4643 ± 0.00088 |
| RVVITYLVLSNR | 0.648 ± 0.06 | 0.686 ± 0.013 | 0.509 ± 0.018 | 0.646 ± 0.011 | 0.522 ± 0.039 | 0.505 ± 0.018 | 0.6445 ± 0.0056 | 0.547 ± 0.094 |
| GSLLNLSLRWLV | 0.626 ± 0.012 | 0.7289 ± 0.0067 | 0.6638 ± 0.0066 | 0.739 ± 0.0077 | 0.13932 ± 9.1e-05 | 0.138 ± 0.022 | 0.226 ± 0.0075 | 0.242 ± 0.0062 |
| FLLPILSSSPVL | 0.692 ± 0.063 | 0.742 ± 0.019 | 0.657 ± 0.011 | 0.735 ± 0.012 | 0.685 ± 0.019 | 0.667 ± 0.025 | 0.6913 ± 0.0023 | 0.727 ± 0.035 |
| RSGWWQWGRPGT | 0.698 ± 0.031 | 0.7525 ± 0.0031 | 0.661 ± 0.033 | 0.7712 ± 0.0041 | 0.692 ± 0.034 | 0.691 ± 0.03 | 0.734 ± 0.025 | 0.752 ± 0.049 |
| LGCLVWGGVWGV | 0.706 ± 0.04 | 0.7595 ± 0.00079 | 0.625 ± 0.0078 | 0.737 ± 0.025 | 0.628 ± 0.021 | 0.638 ± 0.016 | 0.727 ± 0.041 | 0.479 ± 0.019 |
| VGSSSGRLLYLC | 0.595 ± 0.007 | 0.73 ± 0.0093 | 0.633 ± 0.0066 | 0.7466 ± 0.0065 | 0.2656 ± 0.002 | 0.302 ± 0.022 | 0.43 ± 0.0049 | 0.481 ± 0.0082 |
| CKRWGVVSYVFV | 0.601 ± 0.069 | 0.6545 ± 0.0054 | 0.464 ± 0.025 | 0.655 ± 0.0067 | 0.418 ± 0.025 | 0.441 ± 0.024 | 0.61 ± 0.0099 | 0.493 ± 0.017 |
| SFLVRFVYFFAL | 0.54 ± 0.043 | 0.619 ± 0.025 | 0.549 ± 0.021 | 0.6696 ± 0.0039 | 0.229 ± 0.02 | 0.232 ± 0.027 | 0.309 ± 0.017 | 0.314 ± 0.019 |
| FRVSAFFLPFLS | 0.652 ± 0.031 | 0.715 ± 0.008 | 0.655 ± 0.022 | 0.735 ± 0.015 | 0.226 ± 0.011 | 0.246 ± 0.022 | 0.486 ± 0.048 | 0.4 ± 0.013 |
| YFFFPILCFCFF | 0.439 ± 0.03 | 0.43 ± 0.012 | 0.38 ± 0.028 | 0.479 ± 0.0088 | 0.429 ± 0.028 | 0.381 ± 0.018 | 0.437 ± 0.0084 | 0.419 ± 0.047 |

— the supplement of paper PMC10724198
